Experiment [1] addresses rat FcεRI (high affinity IgE receptor) on RBL-2H3 cells (rat) (UniProt P12371). In words: FACS on RBL-2H3 cells; FITC-conjugated IgE after preincubation with saturating unconjugated BC4 (competitor). The following applies: scale: mCi.
The target is the same in experiment [2]. In words: FACS on RBL-2H3 cells; FITC-conjugated IgE after preincubation with saturating unconjugated 5.14 (competitor). Particulars: scale: mCi.
Experiment [3] shares this target. Kind of experiment: FACS on RBL-2H3 cells; FITC-conjugated IgE after preincubation with saturating unconjugated 1A12 (competitor). Particulars: scale: mCi.
Experiment [4] shares this target. Kind of experiment: FACS on RBL-2H3 cells; FITC-conjugated IgE at a subsaturating concentration, no preincubation. Particulars: scale: mCi.
Experiment [5] shares this target. Kind of experiment: FACS on RBL-2H3 cells; FITC-conjugated IgE after preincubation with saturating unconjugated 3A9 (competitor). Particulars: scale: mCi.
The target is the same in experiment [6]. Kind of experiment: FACS on RBL-2H3 cells; FITC-conjugated IgE after preincubation with saturating unconjugated AA4 (anti-ganglioside Gd1b, competitor). The following applies: scale: mCi.
The target is the same in experiment [7]. In words: FACS on RBL-2H3 cells; FITC-conjugated IgE after preincubation with saturating unconjugated 4H7 (competitor). The arrangement: unit not given here.

As to IgE (antibody), the Median Fluorescence Intensity was found to be 5.8 in experiment [1]; 5.5 in experiment [2]; 61 in experiment [3]; 75 in experiment [4]; 6.5 in experiment [5]; 12.3 in experiment [6]. In experiment [7], the Median Fluorescence Intensity worked out at 6.4.

These data come from US7026283.
